For one assay, the target named is mouse PD-L1 (mouse, UniProt Q9EP73). Briefly: SPR.
Assay [1] concerns the target T1, human PD-L1 (human, UniProt Q9NZQ7). Nature of the assay: SPR.
Assay [2] addresses T1, human PD-L1. Briefly: BLI.

Where a chain is given by its changes, count along the chain named.

T1 sequence (Q9NZQ7 19-238): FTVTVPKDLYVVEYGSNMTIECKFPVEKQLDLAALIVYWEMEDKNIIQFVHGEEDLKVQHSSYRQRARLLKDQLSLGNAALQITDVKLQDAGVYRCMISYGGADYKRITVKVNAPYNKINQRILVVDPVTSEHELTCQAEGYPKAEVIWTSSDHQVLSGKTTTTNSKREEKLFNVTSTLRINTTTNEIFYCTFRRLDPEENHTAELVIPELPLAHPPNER
Chain of mouse PD-L1 (Q9EP73 19-238): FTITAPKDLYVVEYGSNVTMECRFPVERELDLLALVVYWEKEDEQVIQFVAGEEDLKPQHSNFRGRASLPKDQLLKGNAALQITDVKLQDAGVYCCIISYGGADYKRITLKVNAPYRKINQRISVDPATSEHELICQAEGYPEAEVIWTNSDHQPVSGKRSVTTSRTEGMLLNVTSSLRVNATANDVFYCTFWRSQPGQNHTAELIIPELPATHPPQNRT

B1: KL001-13 (antibody, V domains shown)
VH: QVQLVESGAEVKKPGSSVKVSCKASGGTFSSYAISWVRQAPGQGLEWMGRIIPILGIANYAQKFQGRVTVTADKSTSTAYMELSSLRSEDTAVYYCARSGYGYAYGSFDYWGQGTLVTVSS
VL: QLVLTQPPSVSGAPGQTVTISCTGQTIGAGYDVHWYQQLPGAAPKLLIYGNLNRPSGVPDRFSGSKSGTSASLAITDLQAEDEADYYCQSYDSRLGVVFGGGTKLTVL
Take B1: the figures for the Kd in the assay with mouse PD-L1, with human PD-L1 [1] and with human PD-L1 [2] were approximately 2.8 nM, approximately 0.0632 nM and 0.00489 nM, respectively.

B2: KL001 (PL110) (antibody, V domains shown)
VH: B1 VH with G102S
VL: B1 VL with Q25P
Consider B2, for which, in the assay with human PD-L1 [2], binding was characterised by a dissociation constant (Kd) of 0.0584 nM.

Values taken from patent publication US12331120 (dated 2025).
